According to paper PMC7195491, “DIP/Dpr interactions and the evolutionary design of specificity in protein families” (Nature Communications, 2020):

Assays:
Conditions in all cases: both partners purified
[1] = target: T1, DIP-β (isoformG), extracellular region (Drosophila melanogaster); test: SPR; Biacore T100, CM4 chip; DIPs and DIP mutants immobilised by amine coupling, Dprs as analytes; 25 °C; 10 mM Tris-HCl pH 7.2, 150 mM NaCl, 1 mM EDTA, 1 mg/mL BSA, 0.01% Tween-20; duplicate responses fit globally to a 1:1 model; Rmax fixed for KDs > 100 μM, lower limit listed for KDs > 300 μM
T1 construct: DIP-β, Drosophila melanogaster, isoform G as printed, extracellular region; source: HEK293F cells, transiently transfected, purified from conditioned media (Ni-IMAC, size-exclusion chromatography)

DIP-α = target: T2, DIP-α (Drosophila melanogaster); test: SPR; Biacore T100, CM4 chip; DIPs and DIP mutants immobilised by amine coupling (760-980 RU), Dprs and Dpr mutants as analytes (three-fold dilution series, up to 81 μM, in some cases up to 27 or 9 μM); 25 °C; 10 mM Tris-HCl pH 7.2, 150 mM NaCl, 1 mM EDTA, 1 mg/mL BSA, 0.01% Tween-20; equilibrium fit, 1:1 model; for KDs > 300 μM a lower limit is listed
T2 construct: DIP-α, Drosophila melanogaster, extracellular region; The PDB entries are cited structures and may hold shorter constructs; also called blue subgroup DIP; source: HEK293F, transiently transfected, purified from conditioned media (Ni IMAC, SEC)

DIP-α A11T = target: T3, DIP-α A11T (Drosophila melanogaster); test: as above
T3 construct: DIP-α, Drosophila melanogaster, extracellular region; the results' sentence speaks of 'Dpr10 positions 10 and 11'; source: HEK293F, transiently transfected, purified from conditioned media (Ni IMAC, SEC)

DIP-α K10Q = target: T4, DIP-α K10Q (Drosophila melanogaster); test: as above
T4 construct: DIP-α, Drosophila melanogaster, extracellular region; source: HEK293F, transiently transfected, purified from conditioned media (Ni IMAC, SEC)

| Binder | Kd [1] | Kd (DIP-α) | fold increase of KD over wild type (DIP-α A11T) | fold increase of KD over wild type (DIP-α K10Q) |
| --- | --- | --- | --- | --- |
| Dpr10 V31K Q29E L10G {V144K Q142E L93G}, extracellular region (domain or fragment, Limits not printed (ref. 11). Start follows PDB 6NRQ entity 1 (W3 = UniProt 50); end is the end of Ig2 in the entry's features.) WNEPYFDLTMPRNITSLVGKSAYLGCRVKHLGNKTVAWIRHRDGHILTVGTYTYTTDQRFQTSYHRDIDEWTLQIKWAQQRDAGVYECQISTEPKRSYSVNLNIVVPTATILGGPDLYVDKGSTINLTCIIKFSPEPPTHIFWYHQDKVLSEETSGGRLKFKTIKSEETKSILLIYDADLLHSGKYSCYPSNTEIASIR | > 500 µM | – | – | – |
| Dpr10 (domain or fragment) YQRQSVSNNNHNNAEAKPTHAPPSHYPHGHKWNEPYFDLTMPRNITSLVGKSAYLGCRVKHLGNKTVAWIRHRDLHILTVGTYTYTTDQRFQTSYHRDIDEWTLQIKWAQQRDAGVYECQISTQPVRSYSVNLNIVDLIDAETSDIMQQYYNDDAFYIAENRVYQSSNDEFAGMFGPIQTVAVPTATILGGPDLYVDKGSTINLTCIIKFSPEPPTHIFWYHQDKVLSEETSGGRLKFKTIKSEETKSILLIYDADLLHSGKYSCYPSNTEIASIR | – | 1.5 ± 0.1 µM | ~10 fold | ~10 fold |
| Dpr10 V31K Q29E L10G (domain or fragment, Same molecule as Dm6. Limits not printed (ref. 11). Start follows PDB 6NRQ; end is the end of Ig2 in the entry's features.) WNEPYFDLTMPRNITSLVGKSAYLGCRVKHLGNKTVAWIRHRDGHILTVGTYTYTTDQRFQTSYHRDIDEWTLQIKWAQQRDAGVYECQISTEPKRSYSVNLNIVVPTATILGGPDLYVDKGSTINLTCIIKFSPEPPTHIFWYHQDKVLSEETSGGRLKFKTIKSEETKSILLIYDADLLHSGKYSCYPSNTEIASIR | – | > 500 µM | – | – |
